Assay: yeast display, Sf9 membrane polyspecificity reagent, FACS + sequencing; frameworks hold sequencing errors
Procedure, shortened: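 A nanobody's polyreactivity label depends on the gate it was sorted from. Yeast display cells were stained with 10% biotinylated, detergent-solubilized Sf9 membrane reagent for 1 hour at 4 °C, enriched on streptavidin microbeads and sorted by FACS. The low and high (top ~1%) gates were set on anti-HA fluorescence for expression and streptavidin fluorescence for reagent binding.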

Row | Sequence | polyreactivity (PSR sort gate)
1 | QVQLVESGRRLVQAGGSLRLSCAASGSTFYGYGMGWYRQAPGKERELVAAITGSGDTTYYADSVKGRFTISRDNAKNTVYLQLNSLKPEDTAVDYCNARWHAEYDYWGQGTQVTVSS | low polyreactivity
2 | QVQLVESGRRLVQAGGSLRLTCAASGSTFTRYAMGWYRQAPGKERELVASISGSGGRTYYADSVKGRFTISRDNAMNTVYLQMNSLKPEDTAVYYCAAKITRRYYPGYLFDYWGQGNQVTVSS | high polyreactivity
3 | QVQLVESGVCLVQAGGSLRLSCASSGLIIPPNAMGWYRQPPGKERELVASITRSGGSTYYADSVKGRFTISRDNAKNTVYVQMNSLTPEDTAVYYCAAYLDTSRYGVLYDYWGQGTQVTVSS | low polyreactivity
4 | QVQLVESGVGIVQARGSLRLSCAASGYTFYRYTMGWYRQSRGNERELVAAINSGGSTNYADSVKGRFTISRDNAKNTVYLQMNSLKPEDTAVYYCAAGDGPWLPRVHYGGYGYWGQGTQVTVSS | high polyreactivity
5 | QVQLVESGVGKVQAGGSLRLSCAASGSTIGSNAMGWYRQAPGKESELVATINWRGGSTYADSVKGRFTLSRDNAKNTVYLQINSLKPEDTAVYYCKKVRGAFYSHLFDYWGQGTEVTVSS | high polyreactivity
6 | QVQLVESGVGLFQAGGSLRLSCAASGITFYSYAMGWYRQAPGKESQLVATISRSGSTYYADSVKGRFTISRDNAKNSVYLQMNSLKPEDTAVYYCAAYYAVRGATYRYGYWGQGTQVTVSS | high polyreactivity
7 | QVQLVESGVGLVHAGGSLRLSCAASGFTFKENAMGWYRQAPGKERELVAAISSTGGSTYYADSVKGRFTISRDIAKNTVYLQINRLKPEDTAVYYCAASTYWYDGDYWGQGTQVTVSS | high polyreactivity
8 | QVQLVESGVGLVKAGGILRLSCAASGFTFASNVMGWSRQAPGKERELVAAITSGASTNYADSVKGRFTISRDNAKNTVYLQMNSLKPEDTAVYYCAAGRQWYVFYEFDYWGQGTQVTVSS | high polyreactivity
9 | QVQLVESGVGLVQAAGSLRLSCAASGFIFWVNAMGWYRQAPGKEREFVAAIRSSGGNTYYADSVKGRFTISRDNAKNTVYLQMNSLKPEDTAVYYCAADSVIVTYESDYWGQGTQVTVSS | low polyreactivity
10 | QVQLVESGVGLVQAGCSLRLSCAASGFTNAMGWYRQAPGKERELVAAISYSGDSTNYADSLKGRFTISRDNAKNTVYLQMNSMKPVDTAVYYCNASSPYDYDWGQGTQVTVSS | low polyreactivity
11 | QVQLVESGVGLVQAGCSLRLSCAASGSTFVLNAMGWYLQAAGKERELVAAISRGGASTYSADSVKGRFTISRDYAKNTVYLQMNSLKPEDTAVYYCNASGYGPGVVIYLVVYDYWGQGTQVTVSS | low polyreactivity
12 | QVQLVESGVGLVQAGGILRLSCAASGFIFALNAMGWYRQAPGKERELVATIDSTSGSTYYADSVKGRFTISRDNAKNTVYLEMNSLKPEDTAVYYCAVVHAQSAPMDYWGQGTQVTVSS | low polyreactivity
13 | QVQLVESGVGLVQAGGILSLSCAASGLTFGAYTMGWYRQAPGKERELVAAITSSGGRTYYADSVKGRFTISRDNAKITFYLQMNSLKPEDTAVFYCNARIFRSPNPYDYWGQGTQVSVSS | high polyreactivity
14 | QVQLVESGVGLVQAGGRLLLSCAASRSIFTRYTMGWYSQAPGKEWELVATISSRGDGTFYADSVKGRFTISRDNAKNTFYLQMNSLKPEDTAVYYCAARYRRVHSGYGYWGQVTQVTVSS | high polyreactivity
15 | QVQLVESGVGLVQAGGRLRLSCAASGRTFYYYAMGWYRQAAAKERELVAAITTDGGNTFYADSVKGRFTISRDNAKNSVYIQMNSLKPEDSAVYYWAKSDTEGYYWDVPVTFDYGGQGTQVTVSS | low polyreactivity
16 | QVQLVESGVGLVQAGGSHRLSCAASGFTFLINAMGWYRQEPWKERELVAAIRSGGSTNYADSVKGRFTISRDNAKNTVYLQMNSLKPEETAVYYCAARRYYPDKYRYGYWGQGTQVTVSS | high polyreactivity
17 | QVQLVESGVGLVQAGGSLRLICAASGRTFYWYAMGWYRQAPRKERELVATITRGGRTYYADSVKGRFTISRDNAKNTVYLQMNSLKPEDTAVYDCATVSIAGPRYDYWGQGTQVTVSS | high polyreactivity
18 | QVQLVESGVGLVQAGGSLRLICAASGSIFWSNAMGWYTQAPGKERELVAAISSGGSTYADSVKGRFTISRDNAKNTVYLQMNSLKPEDTAVYYCNADVLYGDSYRGGYWGQGTQVTVSS | low polyreactivity
19 | QVQLVESGVGLVQAGGSLRLICAASGSIFYPYTMGWYRQAPGKERELVAAITINGGSTYYADSVKGRFTISRDNAKNTVYLQMNSLKPEDTAVYYCAAYYASPRHGYWGQGTQVTVSS | low polyreactivity
20 | QVQLVESGVGLVQAGGSLRLRCAASGSTFIVYALRWSRQAPGKERELVAAISWNGGRTYYADSVKGRFTISRDNAKKTVYLQMNSLKPEDTAVYYCPATLYNTEDDYWGQGTQVTLSS | low polyreactivity
21 | QVQLVESGVGLVQAGGSLRLSCAASGFIFCGYAMVWYRHAPGKERELVAAISWSGDNTYYADSVKGRFTISRDNAKNTVYFQMNSLKPEDTAVYYCAADSYGQEYDYWGQGTQVSVSS | low polyreactivity
22 | QVQLVESGVGLVQAGGSLRLSCAASGFIFDHNAMGWYRQAPGKERELVAAITRSGGSTYYADSVKGRFTISRDNAKNTVYLQMNSLKPEDTAVYYCAADLSYRGATRGDYYWGQGTQVTVSS | low polyreactivity
23 | QVQLVESGVGLVQAGGSLRLSCAASGFIFHRNAMGWYRQAPGKERELVASITKRGGNTYYADSVKGRFTISRDNAKNTVYLQMNSLKPEDTAVYYCATHLWGWDWKRDYWGQGTQVTVSS | high polyreactivity
24 | QVQLVESGVGLVQAGGSLRLSCAASGFIFPTYAMGWYRQAPGKEREFVASITRRGGSTYYADSVKGRFTISRDNAKNSVYLQMNSLKPEDTAVYYCAAGYYGFRGGGSDYWGQGTQVTVSS | high polyreactivity
25 | QVQLVESGVGLVQAGGSLRLSCAASGFIFRKYTMGWYRQAPGKERELVATIDSSGGSTYYADSVKGRFTISRDNAKNTVYLQMNSLKPEDTAVYYCNADLRELSPWYWYSGEMDYWGQGTQVTVSS | low polyreactivity
26 | QVQLVESGVGLVQAGGSLRLSCAASGFIFYRNAMGWYRPAPGKERELVAGISRVGSTYYADSVKGRFTISRDNAKNTVYLQMKSLKPEDTAVYYCATSTYAYRRNSYYYTRPRFGYWGQGTQVSVSS | high polyreactivity
27 | QVQLVESGVGLVQAGGSLRLSCAASGFILTAYDMGWYRQAPGKERELVAAIDWIGGSTYYADSVKGRFTISRDNAKNTVYLQMNSLKPEDTAVYYCAARFYSYVYRLDYWGQGTQVTVSS | low polyreactivity
28 | QVQLVESGVGLVQAGGSLRLSCAASGFTFSYNALGWYRQAPGKERELVAAISSSGGSTYYADSVKGRFTISRDNAKNTVYLQMNILKPEDTAVYYCAVPYLTLYGRTYDYWGHGTQVTVSS | high polyreactivity
29 | QVQLVESGVGLVQAGGSLRLSCAASGFTISYYTIGWSRQAPGKDRELVAAISSTGVSTYYADSVKGRFTISRDTAKNTVYLPLNSLKPEDTSVYYCAADYYGVYEYYYWGQGTQVTVSS | high polyreactivity
30 | QVQLVESGVGLVQAGGSLRLSCAASGGTFRPYAMGWYRHAPGKESELVAAISYTGSTYYADSVKGRFTISRDNAKNTVYLQMNSLKPVDTAVYYCAKDLWYPPRFDYWGQGTQVTVSS | low polyreactivity

From the nanobody polyreactivity screen of Harvey et al. (2022)
